Results on 2 molecules are retold here after PMC3983035, “The RNA-Binding Protein QKI Suppresses Cancer-Associated Aberrant Splicing”.

For one data set, the target named is T1, QKI-5 (His-tagged) (UniProt Q96PU8 1-341).
T1 sequence: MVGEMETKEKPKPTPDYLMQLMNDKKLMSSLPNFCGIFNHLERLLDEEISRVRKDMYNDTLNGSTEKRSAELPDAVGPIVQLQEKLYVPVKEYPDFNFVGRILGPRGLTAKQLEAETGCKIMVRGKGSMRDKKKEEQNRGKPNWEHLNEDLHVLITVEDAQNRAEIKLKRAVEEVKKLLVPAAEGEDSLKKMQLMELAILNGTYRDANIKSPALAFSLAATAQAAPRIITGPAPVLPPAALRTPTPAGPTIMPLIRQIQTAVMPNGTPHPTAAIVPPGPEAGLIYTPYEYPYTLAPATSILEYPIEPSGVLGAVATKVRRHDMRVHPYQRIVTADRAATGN
Kind of data set: EMSA; 0-2080 nM QKI-5; EMSA: 10 ng 32P-RNA, standard splicing conditions, 30 C, 20 min, then tRNA 5 min; 5% native PAGE; buffer, salt and pH not given. The settings on record: protein: recombinant; tags: His-tag (pET-28a); reverse primer also encodes C-terminal FLAG; chain copies: 2; label: 32P. Background: A gel shift assay detects complexes by their altered migration in electrophoresis.

The target in the next data set is T2, SF1 (aa 1-361) (UniProt Q15637 1-361).
T2 sequence: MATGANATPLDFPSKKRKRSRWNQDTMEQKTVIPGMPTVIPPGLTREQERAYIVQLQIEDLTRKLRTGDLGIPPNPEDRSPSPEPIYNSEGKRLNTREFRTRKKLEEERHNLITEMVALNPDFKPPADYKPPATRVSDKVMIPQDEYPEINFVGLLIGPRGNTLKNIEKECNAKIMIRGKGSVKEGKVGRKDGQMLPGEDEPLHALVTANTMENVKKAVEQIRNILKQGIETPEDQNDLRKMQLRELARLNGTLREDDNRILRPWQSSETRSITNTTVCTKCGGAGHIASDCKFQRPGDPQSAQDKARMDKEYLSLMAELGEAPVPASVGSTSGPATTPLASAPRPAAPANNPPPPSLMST
Description: EMSA; 5-10x molar excess; EMSA: 10 ng 32P-RNA, standard splicing conditions, 30 C, 20 min, then tRNA 5 min; 5% native PAGE; buffer, salt and pH not given. The settings on record: protein: recombinant; tags: N-terminal GST (pGEX-5X-2); label: 32P.

B1: NUMB mut2 RNA (ssRNA)
RNA: GGGCACUUGUACACCCUGCAUGAAUUGACUCCAUUGAUGUUGUCUGCUCCCGUUGUAGCGAGUGGCACUGACUCAGCCUUCCAU
B1: the binding result with QKI-5 (His-tagged) was “no binding”.

B2: NUMB mut1 RNA (ssRNA)
RNA: GGGCACUUGUACACCCUGCAUGAAUUAACUCCAUUGAUGUUGUCUGCUCCCGUUGUAGCGAGUGGCACUGACUCAGCCUUCCAU
Turning to B2, the binding result with SF1 (aa 1-361) is recorded as “binds”.
